Columns and labels:
[1] = target: recombinant RBD protein of wild-type SARS-CoV-2 (ELISA antigen) (SARS-CoV-2 wild-type, UniProt P0DTC2)
[2] = target: recombinant wild-type SARS-CoV-2 S trimer (ELISA antigen) (SARS-CoV-2 wild-type, UniProt P0DTC2)

Binder | binding result [1] | binding result [2]
P2S-2A6 (antibody, V domains shown) VH: EVQLVESGGGLVQPGRSLRLSCAASGMTFDDYDMHWVRQVPGKGLEWVSGISWNGGIIGYADSVKGRFTISRDNAKTSLYLQMNSLRAEDTALYYCAKVAGRGDYDYYYGMDVWGQGTTVTVSS VL: QSVLTQPPSVSGAPGQRVTISCTGSSSNIGAGYDVHWYQQLPGTAPKLLIYGNNNRPSGVPDRFSGSKSGTSASLAITGLQAEDEADYYCQSYDSSLSGSVFGGGTKLTVL | binds | binds
P10S-1G4 (antibody, V domains shown) VH: QVQLQESGPGLVKPSQTLSLTCTVSGDSISSGDYYWIWIRQHPGKGLEWIGYIYYSGSTYYNPSLKSRVTISVDTSKNQFSLKLSSVTAADTAVYYCARVEYCSGGSCRRHNWFDPWGQGTLVTVSS VL: QSVLTQPPSVSGAPGQRVTISCTGSSSNIGAGYDVHWYQQLPGTAPKLLIYGNSNRPSGVPDRFSGSKSGTSASLAITGLQAEDEADYYCQSYDSSLSGVVFGGGTKLTVL | binds | binds
P2S-1H6 (antibody, V domains shown) VH: EVQLVESGGGLVQPGRSLRLSCAASGFTFDDYDMHWVRQAPGKGLEWVSGISWNGGIIGYADSVKGRFTISRDNAKTSLYLQMNSLKPEDTALYYCAKVAGRGDYDYYYGMDVWGQGTTVTVSS VL: QSVLTQPPSVSGAPGQRVTISCTGSSSNIGAGYDVHWYQQLPGTAPKLLIYGNNNRPSGVPDRFSGSKSGTSASLAITGLQAEDEADYYCQSYDSSLSGSVFGGGTKLTVL | binds | binds
P2-1D5 (antibody, V domains shown) VH: QVQLVESGGGVVQPGRSLRLSCAASGFTFSSSVMHWVRQAPGKGLEWVALIWYDGSNKYYADSVKGRFTISRDNSKNTLYLQMNSLRAEDTAVYYCARDREITMTTFDYWGQGTLVTVSS VL: not shown | binds | binds
P5S-2G9 (antibody, V domains shown) VH: QVTLRESGPALVKPTQTLTLTCTFSGFSLRTTGMCVSWIRQPPGKALEWLALIDWDGDKYYATSLETRLTISKDTSENQVVLTMTNMDPVDTATYYCVRTLRLRWLDFWGQGTLVTVSS VL: DIQMTQSPSSLSASVGDRVTITCRASQSIGTSLNWYQQKPVKAPNLLIYGASSLQSGVPSRFSGSGSGTDFTLTISSLQPEDFATYYCQQGYTTPLTFGGGTKVEIK | binds | binds
P5S-1D8 (antibody, V domains shown) VH: EVQLVESGGGLVQPGRSLRLSCAASGFTFDDYAMYWVRQAPGKGLEWVSGVSWNSGTIGYADSVKGRFIISRDNAKNSLYLQMRSLRTEDTALYYCAKDSATRYYSGSDYTSYGMDVWGQGTTVTVSS VL: QSALTQPASVSGSPGQSITVSCTGTSSDIGDYNYVSWYQQHPGKAPKLMIYDVSNRPSGASNRFSGSKSGNTASLTISGLQAEDEADYYCSSYTSSSTVVFGGGTKVTVL | binds | binds
P2-1G1 (antibody, V domains shown) VH: EVQLVESGGGLVQPGRSLRLSCAASGFTFDDYAMHWVRQAPGKGLEWVSGMSWNSGTIGYADSVKGRFTISRDNAKNSLYLQMNSLRPEDTALYYCAKDIGGAEMATRNYGMDVWGQGTTVTVSS VL: QSALTQPASVSGSPGQSITISCTGASSDVGGYNYVSWYQQHPGKAPKLMIYDVSERPSGVSNRFSGSKSGNTASLTISGLQAEDEADYYCSSYTSSSTLVFGGGTKLTVL | binds | binds
P195-2A1 (antibody, V domains shown) VH: EVQLVESGGGLVQPGGSLRLSCAASGFTVSSNYMSWVRQAPGKGLEWVSVIYSGGSTYYADSVKGRFTISRDNSKNTLYLQMNSLRAEDTAVYYCARGEGGDLPFDYWGQGTLVTVSS VL: QSALTQPASVSGSPGQSITISCTGTSSDVGGYYYVSWFQQHPGEAPKLMIFDVSKRPSGVSNRFSGSKSGNTASLTISGLQAEDEADYYCSSYTSSSTSHVLFGGGTKLTVL | binds | binds
P5S-1B11 (antibody, V domains shown) VH: QVQLVQSGAEVKKPGASVKLSCRASGYTFTSYFMHWVRQAPGQGLEWMGVINPGGGGTSYAQKFQGRVTMTRDTSTSTVYMELSSLRSEDTAVYYCARYYDSIDNFDYWGQGTLVTVSS VL: DIQMTQSPSSLSASVGDRVTITCRASQGIRNDLGWYQQKPGKAPKCLIYAASSLQSGVPSRFSGSRSGTEFTLTISSLQPEDFATYYCLQHNTYPQLTFGGGTKVEIK | binds | binds
P5S-3D10 (antibody, V domains shown) VH: EVQLVESGGDLVQPGRSLRLSCAASGFTFSLFAMSWVRQAPGKGLEWVSTISGRGDSSYYADSVKGRFTISRDNSKNTLYLQITGLRAEDTAVYYCAKGVDGDYGNWFDPWGQGALVTVSS VL: SYVLTQPPSVSVAPGKTARITCGGNNIGSKSVHWYQQKPGQAPVLVIYYDSDRPSGIPERISGSNSGNTATLTISRVEAGDEADYYCQVWHSSSVIFGGGTKLTVL | binds | binds
P104-1G2 (antibody, V domains shown) VH: QLQLQESGPGLVKPSETLSLTCTVSGGSISSSSYYWGWIRQPPGKGLEWIGSIYYGGSTYYNPSLKSRVTISVDTSKNQFSLKLSSVTAADTAVYYCARSLGIFDYWGQGTLVTVSS VL: DIQMTQSPSSLSASVGDRVTITCRASQGISNSLAWYQQKPGKAPKLLLYGASTLESGVPSRFSGSGSATDYTLTISSLQPEDFATYYCQQYYSNPPYTFGQGTKLEIK | binds | binds
P2S-2E8 (antibody, V domains shown) VH: EVQLVESGGGLVQPGGSLRLSCAASGFTFSSYWMSWVRQAPGKGLEWVANIKQDGSEKYYVDSVKGRFTISRDNAKNSLYLQMNSLRAEDTAVYYCARDLGILWFGELPNFDPWGQGTLVTVSS VL: DIQMTQSPSSLSASVGDRVTITCRASQGISNSLAWYQQKPGKAPKLLLYAASRLESGVPSRFSGSGSGTDYTLTISSLQPEDFATYYCQQYYSTPPRTFGQGTKVEIK | binds | binds
P2-1G9 (antibody, V domains shown) VH: EVQLVESGGGLVQPGGSLRLSCAASGFTFSTYWMSWVRQAPGKGLEWVANIKQDGSDKYYVDSVKGRFTISRDNAKNSLYLQMNSLRVEDTAVYYCARDLGILWFGELPNFDPWGQGTLVTVSS VL: DIQMTQSPSSLSASVGDRVTITCRASQGISNSLAWYQQKPGKAPKLLLYAASTLESGVPSRFSGSGSGTDYTLTISSLQPEDFATYYCQQYYSPPPRTFGQGTKVEIK | binds | binds
P5-2B9 (antibody, V domains shown) VH: EVQLVQSGAEVKKPGESLKISCKGSGHSFTSFWIGWVRQMPGKGLEWMGIIYPGDSETRYSPSFQGQVTISVDKSIFTAYLQWSSLKASDSAMYYCARISGKGVGWFDPWGQGTLVTVSS VL: SYVLTQPPSVSVAPGQTARITCGGNNIGSKSVHWYQQKPGQAPVLVIYYDSDRPSGIPERFSGSNSGNTATLTISRVEAGDEADYYCQVWHSSSDHVVFGGGTKLTVL | binds | binds
P186-2C12 (antibody, V domains shown) VH: EVQLVESGGGVVRPGGSLRLSCAASGFTFDDYGMSWVRQAPGKGLEWVSGIYWNGGITGYADSLKGRFTISRDNAKNSLYLQMNSLRAEDTALYHCARDRGSGYYIFDYWGQGTLVTVSS VL: not shown | binds | binds
P195-1B8 (antibody, V domains shown) VH: QVTLRESGPALVKPTQTLTLTCTFSGFSLSTSGMCVSWIRQPPGKALEWLALIDWDDDKYYSTSLKTRLTISKDTSKNQVVLTMTNMDPVDTATYYCARSWVGGGVDVWGQGTTVTVSS VL: not shown | binds | binds
P2-2H8 (antibody, V domains shown) VH: QVQLVQSGAEVKKPGSSVKVSCKASGGTFSSYAISWVRQAPGQGLEWMGRIISMLGIANYAQKFQGRVTITADKSTSTAYMELSSLRSEDTAIYFCARDPDIHYDSSGYSHYYGMDVWGQGTTVTVSS VL: DIVMTQSPLSLPVTPGEPASISCRSSQSLLHGNGYNYLDWYLQRPGQSPQLLIYLGSNRASGVPGRFSGSGSGTDFTLKISRVEAEDVGVYYCMQALQTLITFGQGTQLEIK | binds | binds
P195-2B8 (antibody, V domains shown) VH: EVQLVESGGGLIHPGGSLRLSCAASGFTVSSNYMTWVRQAPGKGLEWVSVIYSGGSTFYADSVKGRFTISRDNSKNTLYLQMNSLRAQDTAVYYCARDLSVYGMDVWGQGTTVTVSS VL: DIQLTQSPSFLSASVGDRVTITCRASQGISSYLAWYQQKPGKAPKLLIYAASTLQSGVPSRFSGSGSGTEFTLTISSLQPEDFATYYCQQLNSDSFTFGPGTKVDIK | binds | binds
P2-1G7 (antibody, V domains shown) VH: EVQLVESGGGLIQPGGSLRLSCAASGFIVSSNYMTWVRQAPGKGLEWVSVLFSGGSTFYADSVKGRFTISRDNSKNTLYLQMNSLRAEDTAVYYCARENGGYYFDYWGQGTLVTVSS VL: DIQLTQSPSFLSASVGDRVTITCRASQGISTYLAWYQQKPGKAPKLLIYAASTLQSGVPSRFSGSGSGTEFTLTISSLQPEDFATYYCQQLNNYPPDFGGGTKVEIK | binds | binds
P5-1A7 (antibody, V domains shown) VH: EVQLVESGGDLIQPGGSLRLSCAASGFTVSSNYMSWVRQAPGKGLEWVAVIYSGGSTYYADSVKGRFTISRDNSKNTLYLQMNSLRAEDTAVYYCARDYGDFYFDYWGQGTLVTVSS VL: not shown | binds | binds
P186-2A8 (antibody, V domains shown) VH: EVQLVESGGGLVQPGRSLRLSCAASGFTFDDYAMHWVRQAPGKGLEWVSGISWNSGSISYADSVKGRFTISRDNAKNSLYLQMNSLRAEDTALYYCAKALVGGHKYYYGMDVWGQGTTVTVSS VL: not shown | binds | binds

Reference: article PMC10063446 (Nature Immunology, 2023)
